Reference: patent US20100092481A1 (INSTITUTE FOR RESEARCH IN BIOMEDICINE, published 2010)

B1: 9I6 (antibody, V domains shown)
VH: EVQLVQSGAEVKKPGESLKISCRESGDTFPAYWIAWVRQMPGKGLEWMGIIYPIDSETTYSPSFQGQVTISADKSINTAYLQWSSLKASDSAIYYCARGTSTGLREAFHIWGQGTMVTVSS
VL: DVVMTQSPLSLAVTLGQPAYISCRSSQSLGYSDGNTYLNWFQQRPGQSPRRLIYEVSNRDSGVPDRFSGSGSGTDFTLKISRVEAEDVGTYYCMQGTHWPPMCSFGQGTKLEIK
notes: human IgG mAb; also called 9I6-biotin; 916
B2: 7I13 (antibody, V domains shown)
VH: QVQLVESGGGVVQPGRSLRLSCAASGFTFSNYGMHWVRQGPGKGLEWVAVISYDASSKYYTDSVQGRFTISRDNSKNTLFLQMNSLRGEDTAVYYCAKALRYLDWFLSDPFDYWGQGTLVTVSS
VL: EIVLTQSPGTLSLSPGERATLSCRASQSVSSDFLAWYQQKPGQAPRLLIYGASSRATGIPDRFSGSGSGTDFTLTISRLEPEDFAVYYCQQYAASPPFGQGTRLEIK
notes: human IgG mAb
B3: 8J16 (antibody, V domains shown)
VH: QVQLQESGPGLVKPSETLSLTCSVSGGFTSSYYWSWIRQAPGKGLEWIGYVYYGESTDYNPSLKSRATISIDTSKNQFSLKLSSVTAADTAVYYCAREVDKRGFDYWGQGALVTVSS
VL: EIVLTQSPGTLSLSPGERATLSCRASQSVSGGYLAWYQQEPGQAPRLVIYGASSRATGIPDRFSASGSGTDFTLTITRLEPEDFAVYYCQQYGRTPLTFGGGTKVEIK
notes: human IgG mAb; also called 8J16-biotin
B4: 7B13 (antibody, V domains shown)
VH: QVQLVESGGGVVQPGGSLRLSCAASGFSFSNYGMHWVRQAPGKGLEWVALIPSDGNYQYYTDSVKGRFTVSRDNSRNTLYLQMKSLRAEDTARYHCAHLGGGLFDFWGQGTLVTVSS
VL: QSALNQPRSVSGSPGQSVSISCTGSSSDVGGYEFVSWYQHHPGKAPKLIIYDVDKRPSGVPDRFSGSRSGDTASLTISGLQAEDEADYYCYSSADTWVFGGGTKLTVL
notes: human IgG mAb
B5: 2C12 (antibody, V domains shown)
VH: QITLRESGPTLVKPTQTLTLTCTFSGFSLNTNGVGVGWIRQPPGKALEWLALIYWNGNEGYSPSLKSRLTITKDTSKNQVVLTMTNMDPVDTATYYCVHWPQGLTTVTRLAFDIWGQGTMVTVSS
VL: QSALTQPRSVSGSPGQSVTISCTGTTSDVGRYNFVSWYQQHPGKAPKLLMYDVSQRPSGVPSRFSGSKSGNTASLTISGLQAEDEAVFYCCSYAGGNFFSYVFGTGTKVTVL
notes: human IgG mAb; also called 2C12-biotin
B6: 8C15 (antibody, V domains shown)
VH: QVQLQESGPGLVKPSETLSLTCTVSGGSIRSYYWSWIRQPPGKGLEWIGHIYYSGNTNYSPSLQSRVTISLDTPKNQFSLRLSSVTAADTAVYYCARHDVIVVRGVFDVWGQGTVVTVSS
VL: QSALTQPASVSGSPGQSITISCTGTSSDIGTYNLVSWYQQHPGKAPKVLIYDGSKRPSGVSSRFSASKSGNTASLTISGLQAEDETDYYCCSYAGTSDFFVVFGGGTKLTVL
notes: human IgG mAb; also called 8C15-biotin

Target: T1, hCMV UL128, UL130 and UL131A co-expressed in HEK293T cells (human cytomegalovirus, UniProt P16837 1-171; P16772 1-214)
Assay: cell-based or functional assay

T1 sequence (P16837 whole entry, chain 1 of 2): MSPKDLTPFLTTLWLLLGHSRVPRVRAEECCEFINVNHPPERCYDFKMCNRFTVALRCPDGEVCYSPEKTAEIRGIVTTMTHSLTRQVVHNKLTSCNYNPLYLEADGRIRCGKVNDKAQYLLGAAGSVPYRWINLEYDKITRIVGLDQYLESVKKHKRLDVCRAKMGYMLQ
T1 sequence (P16772 whole entry, chain 2 of 2): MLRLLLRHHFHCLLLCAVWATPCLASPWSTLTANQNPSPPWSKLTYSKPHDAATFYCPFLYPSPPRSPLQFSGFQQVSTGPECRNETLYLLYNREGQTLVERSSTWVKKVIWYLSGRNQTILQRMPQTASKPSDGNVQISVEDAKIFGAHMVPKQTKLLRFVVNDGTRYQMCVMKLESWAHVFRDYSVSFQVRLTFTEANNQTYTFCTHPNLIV

Row | Binder | 50% Neutralization ARPE (hCMV VR1814) [µg/mL] | 50% Neutralization MRC-9 (hCMV VR1814) [µg/mL]
1 | B1 | < 0.001 | > 2
2 | B2 | < 0.01 | > 2
3 | B3 | < 0.001 | > 2
4 | B4 | < 0.001 | > 2
5 | B5 | < 0.01 | ≤ 2
6 | B6 | < 0.001 | > 2

Target: T1, hCMV UL128, UL130 and UL131A …
Assay: cell-based or functional assay
Remark: another data set of the same source

Row | Binder | 90% Neutralization ARPE (hCMV VR1814) [µg/mL] | 90% Neutralization MRC-9 (hCMV VR1814) [µg/mL]
7 | B1 | 0.0007 | > 10
8 | B2 | 0.008 | > 10
9 | B3 | 0.0008 | > 10
10 | B4 | 0.003 | > 10
11 | B5 | 0.006 | > 10
12 | B6 | 0.0025 | > 10

Target: T2, hCMV gH, gL, UL128, UL130 and UL131A co-expressed in HEK293T cells (human cytomegalovirus, UniProt P12824 24-743; P16832 31-278; P16837 1-171; P16772 1-214)
T2 construct: whole, on cells; also called gH + gL + UL128 + UL130 + UL131A; gH/gL/UL128-130 complex
Assay: cell cross-competition, 20x excess; competitor 2F4-biotin

Row | Binder | Inhibition of binding (%)
13 | B1 | 0
14 | B3 | 0
15 | B5 | 0

Target: T2, hCMV gH, gL, UL128, UL130 and UL131A …
Assay: cell cross-competition, 20x excess; competitor 5A2-biotin

Row | Binder | Inhibition of binding (%)
16 | B5 | 0

Target: T2, hCMV gH, gL, UL128, UL130 and UL131A …
Assay: cell cross-competition, 20x excess; competitor 6G4-biotin

Row | Binder | Inhibition of binding (%)
17 | B1 | 100
18 | B2 | 0
19 | B3 | 100
20 | B4 | 100
21 | B5 | 100
22 | B6 | 100

Target: T2, hCMV gH, gL, UL128, UL130 and UL131A …
Assay: cell cross-competition, 20x excess; competitor 9I6-biotin

Row | Binder | Inhibition of binding (%)
23 | B1 | 100
24 | B2 | 0
25 | B3 | 70
26 | B4 | 100
27 | B5 | 100
28 | B6 | 100

Target: T2, hCMV gH, gL, UL128, UL130 and UL131A …
Assay: cell cross-competition, 20x excess; competitor 10F7-biotin

Row | Binder | Inhibition of binding (%)
29 | B5 | 0

Target: T2, hCMV gH, gL, UL128, UL130 and UL131A …
Assay: cell cross-competition, 20x excess; competitor 15D8-biotin

Row | Binder | Inhibition of binding (%)
30 | B5 | 0

Target: T2, hCMV gH, gL, UL128, UL130 and UL131A …
Assay: cell cross-competition, 20x excess; competitor 1F11-biotin

Row | Binder | Inhibition of binding (%)
31 | B1 | 0
32 | B2 | 0
33 | B3 | 0
34 | B5 | 0

Target: T2, hCMV gH, gL, UL128, UL130 and UL131A …
Assay: cell cross-competition, 20x excess; competitor 4I22-biotin

Row | Binder | Inhibition of binding (%)
35 | B1 | 0
36 | B3 | 0
37 | B5 | 0
38 | B6 | 0

Target: T2, hCMV gH, gL, UL128, UL130 and UL131A …
Assay: cell cross-competition, 20x excess; competitor 4N10-biotin

Row | Binder | Inhibition of binding (%)
39 | B5 | 0

Target: T2, hCMV gH, gL, UL128, UL130 and UL131A …
Assay: cell cross-competition, 20x excess; competitor 2C12-biotin

Row | Binder | Inhibition of binding (%)
40 | B1 | 100
41 | B2 | 0
42 | B3 | 100
43 | B4 | 100
44 | B5 | 100
45 | B6 | 100

Target: T2, hCMV gH, gL, UL128, UL130 and UL131A …
Assay: cell cross-competition, 20x excess; competitor 8C15-biotin

Row | Binder | Inhibition of binding (%)
46 | B1 | 100
47 | B2 | 0
48 | B3 | 100
49 | B4 | 100
50 | B5 | 100
51 | B6 | 100

Target: T2, hCMV gH, gL, UL128, UL130 and UL131A …
Assay: cell cross-competition, 20x excess; competitor 8I21-biotin

Row | Binder | Inhibition of binding (%)
52 | B1 | 0
53 | B2 | 0
54 | B3 | 0
55 | B4 | 0
56 | B5 | 0
57 | B6 | 0

Target: T2, hCMV gH, gL, UL128, UL130 and UL131A …
Assay: cell cross-competition, 20x excess; competitor 8J16-biotin

Row | Binder | Inhibition of binding (%)
58 | B1 | 100
59 | B2 | 0
60 | B3 | 100
61 | B4 | 100
62 | B5 | 100
63 | B6 | 100
